Source: patent publication US5955420, “Rse receptor activation” (Genentech, Inc., dated 1999)

Molecular target: CD4-IgG (human, UniProt P01730)
Experiment: competition in the FBS-mediated CMK11-5 membrane binding assay
Description: After a 30 min incubation at room temperature, 1 ml of ice cold assay buffer was added to each tube. Then, the membrane associated radioactivity was collected by centrifugation for 4 min at 15000 g, separated from unbound radioactivity by aspiration of the supernatant fluid and counted in a γ counter.

binding result: no binding
B1: Rse ligand (Rse-L) in fetal bovine serum, unpurified or Q-Sepharose enriched (ligand)
chain: ANTLLEETKKGNLERECIEELCNKEEAREIFENNPETEYFYPKYLGCLGSFRAGLFTAARLSTNAYPDLRSCVNAISDQCNPLPCNEDGFMTCKDGQATFTCICKSGWQGEKCESDINECKDPVNINGGCSQICENTPGSYHCSCKNGFVMLSNKKDCKDVDECVLKPSICGTAVCKNIPGDFECECAEGYKYNPVSKSCDDVDECAENLCAQLCVNYPGGYSCYCDGKKGFKLAQDQKSCEAVPVCLPLDLDKNYELLYLAEQFVGVVLYLKFRLPETTRFSAEFDFRTYDSEGVILYAESSDHSAWFLIALREGKIEIQFKNEKTTKMTTGGKVINDGLWHMVSVEELEQSISVKIAKEAVMNINKPGSLFKPTNGFLETKVYFAGVPRKMENALIRPINPRLDGCIRGWNLMNQGTSGVKEIIQEKQNKHCLVNVEKGSYYPGTGVAQFSINYKNESNPEAWQINVSLNIRPSAGTGVMLALVSDNTVPFALSLVDSATEKLQDILVSVESMVIGRIEAISLCSDQQTFLEIRVNRNNLELSTQLRKDSFHSEDFQRQFAILDEAMKGTVVTYLGGLPDVPFSATPVNAFYQGCMEVNINGVQVDLDEAISKHNDIRAHSCPSVWQKTKHT
